# Measured values reported in patent publication US20180362628A1 (KYMAB, published 2018).
# Read-outs that look alike come from different tables or passages of the source. No end group written: not given here. *: point of attachment. Biotin = O=C1N[C@H]2[C@H](CS[C@H]2CCCCC(=O)*)N1
# T1: biotinylated rCSP (biotin/rCSP, Example 3) (Plasmodium falciparum strain 3D7, UniProt P02893 19-389, biotinylated (sites not given))
# T1 construct: also called biotin/Pf CSP
# T1 chain: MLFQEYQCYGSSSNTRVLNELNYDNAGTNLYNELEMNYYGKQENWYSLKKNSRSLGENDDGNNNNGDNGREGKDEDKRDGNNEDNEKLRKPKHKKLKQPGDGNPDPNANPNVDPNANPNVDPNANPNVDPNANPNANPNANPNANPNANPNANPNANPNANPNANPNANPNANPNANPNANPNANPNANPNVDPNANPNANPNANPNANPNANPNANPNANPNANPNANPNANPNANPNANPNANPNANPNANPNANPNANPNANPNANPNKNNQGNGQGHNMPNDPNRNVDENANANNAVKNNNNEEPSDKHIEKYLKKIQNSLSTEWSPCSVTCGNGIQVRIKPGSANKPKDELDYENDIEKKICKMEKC
# T2: Peptide #6 (Biotin-SGSGAGNPDPNANPNV)
# T2 construct: alanine scan variant; also called Peptide #6 44290
# T2 peptide: Biotin-SGSGAGNPDPNANPNV
# T3: Peptide #16 (Biotin-SGSGDGNPDPNANPAV)
# T3 construct: alanine scan variant; also called Peptide #16 44300
# T3 peptide: Biotin-SGSGDGNPDPNANPAV
# T4: Peptide #5 (Biotin-SGSGDGNPDPNANPNV), original sequence of the alanine scan
# T4 construct: also called Peptide #5 44289
# T4 peptide: Biotin-SGSGDGNPDPNANPNV
# T5: Peptide #8 (Biotin-SGSGDGAPDPNANPNV)
# T5 construct: alanine scan variant; also called Peptide #8 44292
# T5 peptide: Biotin-SGSGDGAPDPNANPNV
# T6: Peptide #14 (Biotin-SGSGDGNPDPNAAPNV)
# T6 construct: alanine scan variant; also called Peptide #14 44298
# T6 peptide: Biotin-SGSGDGNPDPNAAPNV
# T7: Peptide #12 (Biotin-SGSGDGNPDPAANPNV)
# T7 construct: alanine scan variant; also called Peptide #12 44296
# T7 peptide: Biotin-SGSGDGNPDPAANPNV
# T8: Peptide #1 (Biotin-SGSGKPKHKKLKQPGDGNPDPNANP) (N-terminal biotin)
# T8 construct: also called Peptide #1 44286
# T8 peptide: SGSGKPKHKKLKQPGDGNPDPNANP
# T9: Peptide #3 (Biotin-SGSGHKKLKQPGDGNPDPNANPN) (N-terminal biotin)
# T9 construct: also called Peptide #3 44288
# T9 peptide: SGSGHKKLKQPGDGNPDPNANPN
# T10: Peptide #17 (Biotin-SGSGDGNPDPNANPNA)
# T10 construct: alanine scan variant; also called Peptide #17 44301
# T10 peptide: Biotin-SGSGDGNPDPNANPNA
# T11: Peptide #10 (Biotin-SGSGDGNPAPNANPNV)
# T11 construct: alanine scan variant; also called Peptide #10 44294
# T11 peptide: Biotin-SGSGDGNPAPNANPNV
# T12: Peptide #9 (Biotin-SGSGDGNADPNANPNV)
# T12 construct: alanine scan variant; also called Peptide #9 44293
# T12 peptide: Biotin-SGSGDGNADPNANPNV
# T13: Peptide #7 (Biotin-SGSGDANPDPNANPNV)
# T13 construct: alanine scan variant; also called Peptide #7 44291
# T13 peptide: Biotin-SGSGDANPDPNANPNV
# T14: Peptide #4 (Biotin-SGSGNPDPNANP)
# T14 construct: also called Peptide #4 44285
# T14 peptide: Biotin-SGSGNPDPNANP
# T15: Peptide #11 (Biotin-SGSGDGNPDANANPNV)
# T15 construct: alanine scan variant; also called Peptide #11 44295
# T15 peptide: Biotin-SGSGDGNPDANANPNV
# T16: Peptide #15 (Biotin-SGSGDGNPDPNANANV)
# T16 construct: alanine scan variant; also called Peptide #15 44299
# T16 peptide: Biotin-SGSGDGNPDPNANANV
# T17: Peptide #13 (Biotin-SGSGDGNPDPNKNPNV)
# T17 construct: scan variant, alanine replaced by lysine; also called Peptide #13 44297
# T17 peptide: Biotin-SGSGDGNPDPNKNPNV
# B1: Antibody 667, human IgG1 (antibody, V domains shown)
# VH: QVQLVQSGAEVKKPGASVKVSCRASGYTFTNYAMHWVRQAPGQRLEWMGWINAGNGYTKYSQKFQDRVTITRDTSATTAYMELSSLRSEDTAMYYCARDSFYDILSGPVYHYYGMDVWGQGTTVTVSS
# VL: QSALTQPDSVSGSPGQSITISCTGTSNDVGIYNHVSWYQQHPGKAPKLMIYDVNKRPSGISNRFSGSKSGDTASLTISGLQAEDEADYYCCSYAGSSAWVFGGGTKLTVL
# notes: human IgG1 with human lambda light chain constant region; also called AB-000667; Ab667
# B2: Antibody 668, human IgG1 (antibody, V domains shown)
# VH: QVQLVQSGAEVKKPGASVKVSCKASGFTFTDYAMHWVRQAPGQRLEWMGWINAGNGYTKYSQKFQDRLTITRDTFASTVYMELSSLRSEDTTVYYCARDGFCPSNTCSGYYGMDVWGQGTTVTVSS
# VL: QSALTQPASVSGSPGQSITISCTGTSSDVGSYNYVSWYQQHPGKAPKLMIYDVNTRPSGVSIRFSASKSGNTASLTVSGLQAEDEAVYYCSSYAGSSTWVFGGGTKLTVL
# notes: human IgG1 with human lambda light chain constant region; HEK293 product; also called AB-000668; Ab668
# Tests used:
# [1] = target: T1, biotinylated rCSP (biotin/rCSP, Example …); test: BLI (Octet), biotin-rCSP on streptavidin sensor, antibody in solution
# [2] = target: T18, Recombinant CSP (Wellcome Trust Sanger Institute, FIG. 22), CSP ectodomain with BirA biotinylation tag, … (Plasmodium falciparum strain 3D7, UniProt Q7K740 19-376, biotinylated at the BirA substrate peptide); test: SPR, IgG1 captured, CSP as analyte, 40 C; apparent affinity (avidity)
# T18 construct: extracellular domain; Expressed in HEK293, 45 kDa; order of the tags is that of the legend, not confirmed; also called biotinylated recombinant CSP
# [3] = target: T2, Peptide #6 (Biotin-SGSGAGNPDPNANPNV); test: BLI, biotin-peptide on streptavidin sensor, IgG1 in solution, 25 C
# [4] = target: T3, Peptide #16 (Biotin-SGSGDGNPDPNANPAV); test: as above
# [5] = target: T4, Peptide #5 (Biotin-SGSGDGNPDPNANPNV), …; test: as above
# [6] = target: T5, Peptide #8 (Biotin-SGSGDGAPDPNANPNV); test: as above
# [7] = target: T6, Peptide #14 (Biotin-SGSGDGNPDPNAAPNV); test: as above
# [8] = target: T7, Peptide #12 (Biotin-SGSGDGNPDPAANPNV); test: as above
# [9] = target: T8, Peptide #1 …; test: as above
# [10] = target: T9, Peptide #3 …; test: as above
# [11] = target: T10, Peptide #17 (Biotin-SGSGDGNPDPNANPNA); test: as above
# [12] = target: T11, Peptide #10 (Biotin-SGSGDGNPAPNANPNV); test: as above
# [13] = target: T12, Peptide #9 (Biotin-SGSGDGNADPNANPNV); test: as above
# [14] = target: T13, Peptide #7 (Biotin-SGSGDANPDPNANPNV); test: as above
# [15] = target: T14, Peptide #4 (Biotin-SGSGNPDPNANP); test: as above
# [16] = target: T15, Peptide #11 (Biotin-SGSGDGNPDANANPNV); test: as above
# [17] = target: T16, Peptide #15 (Biotin-SGSGDGNPDPNANANV); test: as above
# [18] = target: T1, biotinylated rCSP (biotin/rCSP, Example …); test: BLI (Octet), biotin-rCSP on streptavidin sensor, antibody in solution
# [19] = target: T2, Peptide #6 (Biotin-SGSGAGNPDPNANPNV); test: BLI, biotin-peptide on streptavidin sensor, IgG1 in solution, 25 C
# [20] = target: T3, Peptide #16 (Biotin-SGSGDGNPDPNANPAV); test: as above
# [21] = target: T4, Peptide #5 (Biotin-SGSGDGNPDPNANPNV), …; test: as above
# [22] = target: T5, Peptide #8 (Biotin-SGSGDGAPDPNANPNV); test: as above
# [23] = target: T17, Peptide #13 (Biotin-SGSGDGNPDPNKNPNV); test: as above
# [24] = target: T6, Peptide #14 (Biotin-SGSGDGNPDPNAAPNV); test: as above
# [25] = target: T7, Peptide #12 (Biotin-SGSGDGNPDPAANPNV); test: as above
# [26] = target: T8, Peptide #1 …; test: as above
# [27] = target: T9, Peptide #3 …; test: as above
# [28] = target: T10, Peptide #17 (Biotin-SGSGDGNPDPNANPNA); test: as above
# [29] = target: T11, Peptide #10 (Biotin-SGSGDGNPAPNANPNV); test: as above
# [30] = target: T12, Peptide #9 (Biotin-SGSGDGNADPNANPNV); test: as above
# [31] = target: T13, Peptide #7 (Biotin-SGSGDANPDPNANPNV); test: as above
# [32] = target: T14, Peptide #4 (Biotin-SGSGNPDPNANP); test: as above
# [33] = target: T15, Peptide #11 (Biotin-SGSGDGNPDANANPNV); test: as above
# [34] = target: T16, Peptide #15 (Biotin-SGSGDGNPDPNANANV); test: as above
binder,measurement,setting,value
B1,Kd,[1],0.341 nM
same,koff,[1],5.67e-05 s⁻¹
same,kon,[1],166000 M⁻¹ s⁻¹
same,Kd,[2],0.31 nM
same,koff,[2],6.46e-05 s⁻¹
same,kon,[2],215000 M⁻¹ s⁻¹
same,Response (nm),[3],0.907 nm
same,Response (nm),[4],0.651 nm
same,Response (nm),[5],0.635 nm
same,Response (nm),[6],0.692 nm
same,Response (nm),[7],-0.0141 nm
same,Response (nm),[8],0.0529 nm
same,Response (nm),[9],0.645 nm
same,Response (nm),[10],0.814 nm
same,Response (nm),[11],1.09 nm
same,Response (nm),[12],3.22 nm
same,Response (nm),[13],0.696 nm
same,Response (nm),[14],0.951 nm
same,Response (nm),[15],0.163 nm
same,Response (nm),[16],0.0953 nm
same,Response (nm),[17],0.213 nm
same,Kd,[18],0.34 nM
B2,Kd,[1],0.57 nM
same,koff,[1],7.1e-05 s⁻¹
same,kon,[1],125000 M⁻¹ s⁻¹
same,Kd,[2],0.05 nM
same,koff,[2],2.47e-05 s⁻¹
same,kon,[2],540000 M⁻¹ s⁻¹
same,Kd,[18],0.57 nM
same,Response (nm),[19],4.9 nm
same,Response (nm),[20],4.72 nm
same,Response (nm),[21],4.71 nm
same,Response (nm),[22],4.86 nm
same,binding result,[23],no binding (tested: LOD 0.170 nm)
same,Response (nm),[24],0.597 nm
same,Response (nm),[25],4.74 nm
same,Response (nm),[26],6.47 nm
same,Response (nm),[27],6.34 nm
same,Response (nm),[28],4.86 nm
same,Response (nm),[29],5.82 nm
same,Response (nm),[30],4.72 nm
same,Response (nm),[31],4.88 nm
same,Response (nm),[32],4.69 nm
same,Response (nm),[33],6.01 nm
same,Response (nm),[34],5.69 nm
